# Measured values published in the RNAGym collection of RNA variant scans (doi:10.1101/gr.219683.116).
# B1: mRNA-splicing (parent)
# chain: AGUUGCUGCUGGGAGCUCCAGCACAGUGAAAUGGACAGAAGGGCAGAGCAA
# Variants of: B1
# Test: exon inclusion enrichment index; higher = more inclusion; WT1 exon 5 minigene, HEK293
row,Variant,exon inclusion enrichment index
1,G5A U7C G8A G11C,1.3
2,G5A U7C G8A G11U,1.23
3,G5A U7C G8A G11A,0.186
4,G5A C6U U7C U10C,3.3
5,G5A C6U U7G C9A,0.561
6,G5A C6U U7A G8U C9A G41A G42C,0.172
7,G5A C6U U7A G8U C9A G41A G42U,0.0659
8,G5A C6U U7A G8U C9A G41A G42A,0.0506
9,G5A U7C G8A U10A,0.253
10,G5A U7C G8A U10C,2.53
11,G5A U7A U10C,1.84
12,G5A C6U U7A G8U C9A U10G G11U,0.014
13,G5A C6U U7A G8U C9A U10G G11C,0.022
14,G5A C6U U7A G8U C9A U10G G11A,0.0194
15,G5A U7C G8A,1.09
16,G5A C6U U7A G8U C9A U17A,0.0566
17,G5A C6U U7A G8U C9A U17G,0.0456
18,G5A C6U U7A G8U C9A U17C,0.0376
19,G5A U7C C9A,2.07
20,G5A C6U U7A G8U C9U U10G,0.0345
21,G5A C6U U7A G8U C9U U10C,0.453

row,Variant,exon inclusion enrichment index
1,G5A C6U U7A G8U C9U U10A,0.00135
2,G5A C6U U7A G8U U10G,0.317
3,G5A C6U U7A G8U U10C,1.03
4,G5A C6U U7A G8U U10A,0.0329
5,G5A G8C U10C,1.52
6,G5A U7A G8U C9A,0.262
7,G5A U7C C9G U10C,2.65
8,G5A C6U U7C G8A U10A,0.0761
9,G5A C6U U7C G8A U10C,2.02
10,G5A U7C G8A C9A U10C,2
11,G5A U7C G8A C9A U10A,0.384
12,G5A U7C G8A C9A U10G,0.509
13,G5A U7A G8C U10C,1.42
14,G5A U7A G8U U10C,1.96
15,G5A U7C G8A C9G U10A,0.989
16,G5A U7C G8A C9G U10C,1.65
17,G5A U7C G8A C9G U10G,0.236
18,G5A C6U U7G G8C C9A,0.407
19,G5A C6U U7G G8U C9A,0.144
20,G5A C6U U7A G8U C9A G46A,0.0879
21,G5A C6U U7A G8U C9A G46C,0.0876

row,Variant,exon inclusion enrichment index
1,G5A C6U U7A G8U C9A G46U,0.0405
2,G5A C6U U7A G8U C9A U27G G28A,0.12
3,G5A C6U U7A G8U C9A U27G G28U,0.00125
4,G5A C6U U7A G8U C9A U27G G28C,0.0308
5,G5A C6U U7G G8A C9A,0.546
6,G5A C6U U7A G8U C9A G41C,0.435
7,G5A C6U U7A G8U C9A G41A,0.0374
8,G5A C6U U7A G8U C9A G41U,0.077
9,G5A C6U U7A G8U C9A U10C G11C,0.845
10,G5A C6U U7A G8U C9A U10C G11U,0.148
11,G5A C6U U7A G8U C9A U10C G11A,0.0351
12,G5A C6U U7A G8U C9A U32C G33C,0.144
13,G5A C6U U7A G8U C9A U32C G33A,0.0199
14,G5A C6U U7A G8U C9A U32C G33U,0.0226
15,G5A C6U U7A G8U C9A G42A G43A,1.16
16,G5A C6U U7A G8U C9A G42A G43C,1.53
17,G5A C6U U7A G8U C9A G42A G43U,1.03
18,G5A C6U U7A G8U C9A G42A,0.446
19,G5A C6U U7A G8U C9A G42C,0.399
20,G5A C6U U7A G8U C9A G42U,0.107
21,G5A C6U U7A G8U C9G U10C,0.339

row,Variant,exon inclusion enrichment index
1,G5A C6U U7A G8U C9G U10A,0.0375
2,G5A C6U U7A G8U C9G U10G,0.0235
3,G5A U7C G8A C9U U10C,2.24
4,G5A U7C G8A C9U U10G,0.887
5,G5A U7C G8A C9U U10A,0.0302
6,G5A C6U U7A G8U C9A U10A G11A,0.0538
7,G5A C6U U7A G8U C9A U10A G11U,0.0948
8,G5A C6U U7A G8U C9A U10A G11C,0.176
9,G5A C6U U7A G8U C9A U32A G33U,0.0199
10,G5A C6U U7A G8U C9A U32A G33C,0.0967
11,G5A C6U U7A G8U C9A U32A G33A,0.00941
12,G5A C6U U7A G8U C9A G48C,0.13
13,G5A C6U U7A G8U C9A G48U,0.114
14,G5A C6U U7A G8U C9A G48A,0.185
15,G5A U7C G8A U10A G11A,1.07
16,G5A U7C G8A U10A G11U,1.37
17,G5A U7C G8A U10A G11C,1.63
18,G5A C6U U7A G8U C9A G46U A47G,0.0512
19,G5A C6U U7A G8U C9A G46U A47U,0.0891
20,G5A C6U U7A G8U C9A G46U A47C,0.376
